We go through two molecules from publication PMC10197130, “Disulfide-Bond-Induced Structural Frustration and Dynamic Disorder in a Peroxiredoxin from MAS NMR” (Journal of the American Chemical Society, 2023).

The target in one series is Tsa1 S78D mutant (yeast). The experiment in a line: SEC; size-exclusion chromatography of the S78D mutant (Figure S2C). In general terms: Size exclusion chromatography separates by hydrodynamic size, large species first.
Series [1] deals with the molecule itself. The experiment in a line: SEC-MALS; Superdex Increase 200 10/300 GL, phosphate buffer (PBS or 50 mM KPi KCl pH 7.4), RT (ca. 297 K); decamer also reinjected alone, with TCEP and after H2O2 treatment.
Series [2] concerns the molecule itself. Put plainly: methyl-detected diffusion-ordered NMR spectroscopy (DOSY); solution, deuterated Ile/Leu/Val methyl-labeled sample, series from 25 to 60 °C; temperatures above the midpoint at ca. 315 K.

The stoichiometry N is a count of units in the complex or per binding partner.

In the series with Tsa1 S78D mutant (yeast), Tsa1 S78D mutant (enzyme) returned a stoichiometry N of 2.

B1: Tsa1 wild type (2-Cys peroxiredoxin from yeast) (enzyme, UniProt P34760 1-196, looked up)
chain: MVAQVQKQAPTFKKTAVVDGVFDEVSLDKYKGKYVVLAFIPLAFTFVCPTEIIAFSEAAKKFEEQGAQVLFASTDSEYSLLAWTNIPRKEGGLGPINIPLLADTNHSLSRDYGVLIEEEGVALRGLFIIDPKGVIRHITINDLPVGRNVDEALRLVEAFQWTDKNGTVLPCNWTPGAATIKPTVEDSKEYFEAANK
modifications: disulfide bond between Cys47 (CP) of one subunit and Cys170 (CR) of another subunit in the oxidized state (as purified or after H2O2); free thiols in the reduced state (TCEP or DTT)
notes: Tsa1, 2-Cys peroxiredoxin from yeast, wild type, plasmid pET19b-Tsa1 corresponding to UniProt entry P34760, codon-optimized; No removal of the His tag is described; Decamer of five dimers (ca. 216 kDa) at ambient temperature; also called Tsa1^WT; Tsa1^ox; source: E. coli BL21(DE3), purified (Ni2+-HisTrap, gel filtration on Superdex S200 increase); copies: 10
Turning to B1, the “stoichiometry N” value amounted to 10 in series [1] and 2 in series [2].
